{"source": "paper PMC4860041", "target": "taxol-stabilized porcine microtubules (tubulin purified from porcine brain) (UniProt P02550)", "sequence (P02550 whole entry, looked up)": "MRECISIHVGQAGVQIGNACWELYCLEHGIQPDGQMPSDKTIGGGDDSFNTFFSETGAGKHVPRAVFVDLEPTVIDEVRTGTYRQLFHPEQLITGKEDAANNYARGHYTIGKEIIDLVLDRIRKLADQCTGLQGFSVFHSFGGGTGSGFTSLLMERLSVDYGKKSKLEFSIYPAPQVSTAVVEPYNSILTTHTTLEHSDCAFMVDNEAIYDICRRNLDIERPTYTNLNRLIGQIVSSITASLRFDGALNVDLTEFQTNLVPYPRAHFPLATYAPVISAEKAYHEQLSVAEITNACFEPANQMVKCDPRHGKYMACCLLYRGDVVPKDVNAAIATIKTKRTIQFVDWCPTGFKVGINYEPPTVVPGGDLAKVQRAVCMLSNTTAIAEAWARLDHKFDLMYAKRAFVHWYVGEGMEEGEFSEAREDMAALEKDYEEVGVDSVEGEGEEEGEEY", "test": "co-sedimentation"}
{"substance": "recombinant GFP-B>A-MNB kinase (Basic-to-Acidic mutant, KKKRR 118-122 to EEEDD)", "values": [{"measurement": "apparent Km", "value": "a Km of 4.46 ± 2.62 μM (mean ± s.d.)"}]}
{"substance": "recombinant full-length GFP-MNB kinase (Drosophila Minibrain, isoform E)", "values": [{"measurement": "apparent Km", "value": "a Km of 0.96 ± 0.10 μM (mean ± s.d.)"}]}
